This note sets out measurements from paper doi:10.1101/2025.10.18.683246 (bioRxiv, 2025).

Data set [1] has as its target T1, N-terminal cleavage product of CLCA1 (NTP) (human, UniProt A8K7I4 22-694, N-glycans at Asn503 and Asn585).
T1 sequence (looked up): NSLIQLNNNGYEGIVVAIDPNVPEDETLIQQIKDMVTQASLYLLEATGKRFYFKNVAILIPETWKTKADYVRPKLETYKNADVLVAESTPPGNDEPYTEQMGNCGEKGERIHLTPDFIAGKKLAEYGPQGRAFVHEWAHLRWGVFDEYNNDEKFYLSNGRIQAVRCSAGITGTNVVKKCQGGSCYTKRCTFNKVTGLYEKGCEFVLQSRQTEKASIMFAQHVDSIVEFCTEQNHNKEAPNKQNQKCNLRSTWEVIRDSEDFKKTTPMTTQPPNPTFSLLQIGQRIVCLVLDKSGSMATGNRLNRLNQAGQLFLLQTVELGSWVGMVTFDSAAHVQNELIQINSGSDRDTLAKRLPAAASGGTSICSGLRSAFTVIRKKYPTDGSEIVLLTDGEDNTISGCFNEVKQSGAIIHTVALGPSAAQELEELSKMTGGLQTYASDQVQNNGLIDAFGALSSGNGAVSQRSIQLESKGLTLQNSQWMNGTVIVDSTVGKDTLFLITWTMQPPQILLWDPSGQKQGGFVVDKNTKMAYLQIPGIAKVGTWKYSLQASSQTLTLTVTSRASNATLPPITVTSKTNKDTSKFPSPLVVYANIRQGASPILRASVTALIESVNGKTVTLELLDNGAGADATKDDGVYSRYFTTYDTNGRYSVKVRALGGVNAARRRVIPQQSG
As to the kind of experiment: cryo-EM structure.

Data set [2] deals with the molecule itself. As to the kind of experiment: SDS-PAGE with or without DTT and Western blot.

B1: C-terminal cleavage product of CLCA1 (CTP) (domain or fragment, human, UniProt A8K7I4 695-914, looked up)
chain: ALYIPGWIENDEIQWNPPRPEINKDDVQHKQVCFSRTSSGGSFVASDVPNAPIPDLFPPGQITDLKAEIHGGSLINLTWTAPGDDYDHGTAHKYIIRISTSILDLRDKFNESLQVNTTALIPKEANSEEVFLFKPENITFENGTDLFIAIQAVDKVDLKSEISNIARVSLFIPPQTPPETPSPDETSAPCPNIHINSTIPGIHILKIMWKWIGELQLSIA
modifications: N-glycans at Asn770, Asn804, Asn810, Asn831 and Asn836
In the case of B1, the binding result in data set [1] and in data set [2] was “binds” in each case.
